Assay [1] deals with T1, human TrkA on CellSensor TrkA-NFAT-bla CHO-K1 cells (human, UniProt P04629 33-796).
T1 construct: whole, on cells; Bought cell line; also called cells overexpressing human TrkA
Put plainly: FACS on CellSensor TrkA-NFAT-bla CHO-K1 cells (human TrkA), APC goat anti-mouse IgG. The method, then:
(§1) The ELISA-positive antibody producing clones were further verified by fluorescence-activated cell sorting (FACS) using a conventional method. Briefly, CellSensor® TrkA-NFAT-bla CHO-K1 cells (cells overexpressing human TrkA) were stained with anti-TrkA antibody in U-bottom 96-well plates. The cells were resuspended to 2×10⁶ cells/ml in ice cold PBS. The diluted solutions of primary and secondary antibodies were prepared, and 100 μl of the diluted primary antibody was added in each well, and incubated for 1 hours at 4° C. in the dark. The cells were washed for 2 times by centrifugation at 2500 rpm for 3 min and resuspended in ice cold PBS. The APC Goat anti-Mouse IgG was diluted in cold PBS at the […] and then the cells were resuspended in 100 μl of this solution. The cells were washed for 2 times by centrifugation at 2500 rpm for 3 min and resuspended in 100 μl ice cold PBS. The cell suspension was stored immediately at 4° C. in the dark. The cells were analyzed on the flow cytometer as soon as possible.

In assay [2] the target is T1, human TrkA on CellSensor TrkA-NFAT-bla …. Put plainly: FACS on CellSensor TrkA-NFAT-bla CHO-K1 cells (human TrkA), APC goat anti-mouse IgG; y axis without label. The method, then:
as §1

For assay [3] the target is unchanged. Put plainly: cell-based or functional assay.
The target is the same in assay [4]. Description: cell-based or functional assay. The source holds these as a separate data set.
Assay [5] addresses T2, extracellular domain (ECD) of human TrkA protein, N-terminal flag tag and C-terminal His tag (PHA) (human, UniProt P04629 33-423).
T2 construct: Made in 293-F cells and purified by IMAC; also called TrkA ECD protein; TrkA (ECD); not shown: flag tag at the N-terminus (after the signal peptide); His tag at the C-terminus
Put plainly: indirect ELISA on coated PHA (human TrkA ECD, 1 ug/mL), anti-mouse IgG-HRP, OD450. On the procedure:
Hybridoma supernatants were initially screened with human TrkA by indirect ELISA. Briefly, purified PHA was diluted to a final concentration of 1 μg/mL in PBS buffer. 100 μL of the diluted antigen was added to each well of a 96-well plate, and incubated at 4° C. overnight. The plates were washed with PBST (PBS comprising 0.05% Tween-20, pH 7.4) for three times, then 200 μl/well of 2% bovine serum albumin (BSA) diluted in PBST was added and incubated at room temperature for 2 hours for blocking. The blocking solution was removed, and the plate was washed 3 times with 300 μl PBST. The diluted solutions of primary and secondary antibodies, along with substrate solution was prepared. 100 μl of diluted primary antibody was pipetted in each well and was incubated for 1 hour at room temperature. The content in the wells was removed and washed for 3 times with 300 μl PBST buffer. PBS was removed from the plates. 100 μl of diluted Peroxidase-AffiniPure Goat Anti-Mouse IgG was added in each well and incubated for 1 hour at 37° C. The content in the wells was removed and the wells were washed for 3 times with 300 μl PBST. 100 μl of TMB substrate solution was added to the wells. After sufficient color development, 100 μl of stop solution was added to the wells to terminate the reaction. Read the absorbance (OD: 450) of each well with a microplate reader and the data were analyzed.
(In an ELISA, binding on a coated surface is turned into a signal by an enzyme label.)

Assay [6] has as its target T2, extracellular domain (ECD) of human …. Put plainly: BLI (Octet Red384), antibody captured on anti-human Fc AHQ tips, antigen 100 nM. The method, then:
(§2) The bio-layer interferometry (BLI) method was used to determine the affinities of the antibodies, employing Octet Red384. Briefly, anti-human Fc-coated biosensor AHQ tips (ForteBio) were put into PBS with 0.1% w/v bovine serum albumin and 0.05% Tween-20 for a minimum of 10 min in the pre-wetting plate. The purified antibodies (100 nM in PBS with 0.1% bovine serum albumin and 0.05% Tween-20 (assay buffer)) were captured on AHQ biosensors (ForteBio) at a level of about 1 nm. The loaded biosensors were washed with an assay buffer to remove any unbound protein. Then, the association rates, dissociation rates and response were measured, using an antigen of 100 nM (in PBS with 0.1% bovine serum albumin and 0.05% Tween-20).

Assay [7] deals with T1, human TrkA on CellSensor TrkA-NFAT-bla …. Put plainly: FACS on cells expressing human TrkA (FIG. 5A).
Assay [8] deals with T2, extracellular domain (ECD) of human …. Description: SPR (BIAcore T200), antibody on protein G chip, PHA 0.625-20 nM injected. The method, then: The binding kinetics and affinities of the humanized antibodies were determined using a BIAcoreT200™ SPR system. Approximately 30 RU of the humanized antibody was immobilized on a protein G sensor chip and serial 2-fold dilutions of the PHA (0.625-20 nM) in 1×HBS-EP+ buffer were injected over the antibody-bound surface at a flow rate of 30 μl/min.
(Surface plasmon resonance follows binding to a sensor surface in real time, without labels.)

Assay [9] concerns the target T1, human TrkA on CellSensor TrkA-NFAT-bla …. Description: FACS on cells expressing human TrkA (FIG. 4A).
The target of assay [10] is T2, extracellular domain (ECD) of human …. Description: BLI (Octet Red384), as in Example 4. The method, then:
as §2
Two rounds of humanizations were further performed. […] In the second round, many other variants were further constructed (including several mutations in the CDR sequences). Quickchange based site-directed mutagenesis or overlap PCR were performed to create expression plasmid of new versions of 2nd round humanized antibodies. All recombinant antibodies were expressed and purified as described in Example 1, then measured antigen binding affinity using BLI technology with the Octet Red384 instrument as mentioned above. To compare the functional activity of humanized antibodies with chimeric antibodies, NFAT assay was also performed.

The target in assay [11] is T1, human TrkA on CellSensor TrkA-NFAT-bla …. Put plainly: cell-based or functional assay. This is another data set of the same source.
Assay [12] has as its target T2, extracellular domain (ECD) of human …. Description: BLI (Octet Red384), His-tagged TrkA ECD captured on Anti-Penta-HIS (HIS1K) biosensor, pAb01 as second antibody (90 s) after PHD48.
Protocol: A bio-layer interferometry (BLI) method-based competition assay was performed on Octet Red384. Briefly, Anti-Penta-HIS (HIS1K) Biosensor (Fortebio) was put in PBS with 0.1% w/v bovine serum albumin and 0.05% Tween-20 (assay buffer) for a minimum of 10 min in the pre-wetting plate. The TrKA ECD protein at 100 nM in assay buffer was captured on the sensor to obtain a capture level of 0.3˜1 nm. The loaded biosensors were then equilibrated with an assay buffer for a minimum of 30s followed by binding of the first antibody for 90s. After the second equilibration, the second antibody was loaded for 90s.

Read-outs that look alike come from different tables or passages of the source.

T1 sequence (P04629 33-796 limits assumed, form in doubt): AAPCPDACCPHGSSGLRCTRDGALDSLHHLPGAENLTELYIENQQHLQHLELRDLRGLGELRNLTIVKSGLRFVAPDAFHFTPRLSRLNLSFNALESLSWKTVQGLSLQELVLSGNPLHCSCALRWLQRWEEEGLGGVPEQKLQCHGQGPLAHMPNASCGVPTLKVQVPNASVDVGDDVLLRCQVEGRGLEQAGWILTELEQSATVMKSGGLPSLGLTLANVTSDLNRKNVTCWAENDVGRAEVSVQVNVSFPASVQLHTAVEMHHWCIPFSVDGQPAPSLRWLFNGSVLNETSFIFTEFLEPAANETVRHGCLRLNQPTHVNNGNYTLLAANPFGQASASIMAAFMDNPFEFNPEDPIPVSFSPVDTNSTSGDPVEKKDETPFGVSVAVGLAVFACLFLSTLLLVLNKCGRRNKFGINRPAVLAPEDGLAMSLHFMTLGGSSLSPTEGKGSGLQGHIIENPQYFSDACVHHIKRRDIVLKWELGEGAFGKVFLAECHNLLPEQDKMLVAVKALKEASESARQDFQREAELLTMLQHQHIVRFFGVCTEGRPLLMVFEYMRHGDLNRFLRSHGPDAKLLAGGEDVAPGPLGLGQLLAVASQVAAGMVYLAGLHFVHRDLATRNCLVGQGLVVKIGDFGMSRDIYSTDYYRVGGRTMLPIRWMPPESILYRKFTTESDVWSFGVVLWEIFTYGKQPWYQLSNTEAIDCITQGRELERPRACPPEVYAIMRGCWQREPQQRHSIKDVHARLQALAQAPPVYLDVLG
T2 sequence (P04629 33-423): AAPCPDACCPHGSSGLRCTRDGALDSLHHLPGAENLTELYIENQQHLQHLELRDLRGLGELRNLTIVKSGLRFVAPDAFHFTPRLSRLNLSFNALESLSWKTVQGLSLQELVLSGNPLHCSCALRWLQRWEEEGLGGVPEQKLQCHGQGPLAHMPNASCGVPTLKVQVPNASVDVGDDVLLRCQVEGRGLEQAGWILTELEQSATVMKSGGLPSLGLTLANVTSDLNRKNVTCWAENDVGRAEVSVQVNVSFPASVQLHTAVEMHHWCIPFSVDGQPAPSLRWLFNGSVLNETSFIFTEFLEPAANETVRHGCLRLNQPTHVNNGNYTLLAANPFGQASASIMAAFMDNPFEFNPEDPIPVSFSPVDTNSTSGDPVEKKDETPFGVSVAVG

B1: muPHD49 (antibody, V domains shown)
VH: QVQLQQSGAELARPGASVKLSCKASGYTFSSYWMQWVKQRPGQGLEWIGAIYPGDDDTIYTQKFKGKATLTADKSSSTAYMQLSSLASEDSAVYYCARNYDYQAWFAYWGQGTLVTVSA
VL: QIVLTQSPALMSASPGEKVTMTCSASSSVSYMYWYQQKPRSSPKPWIYLTSNLASGVPARFSGSGSGTSYSLTISSMEAEDAATYYCQQWSSNPLTFGAGTKLELK
notes: Mouse hybridoma monoclonal antibody; also called muPHID49
Consider B1, for which the figures for the 50% effective concentration (EC50) in assay [1] and in assay [5] were 0.473 mg/L and 1.07 nM, respectively. Also, the Top in assay [2] was determined as 173000; in assay [5], 1.94 OD450. The “Top; inhibition of NGF-induced TrkA activation in TrkA-NFAT-bla CHO-K1 reporter cells” value (“Top; inhibition” for short) in assay [3] turned out to be 0.796 Response Ratio. Besides, the “IC50 in NFAT assay” value in [4] is 0.404 nM.

B2: muPHD50 (antibody, V domains shown)
VH: EVQLQQSGTVLARPGASVKMSCKASGYIFTSYWMHWVKQRPGQGLEWIGAIYPGDSDTNYNQKFKGKAKLTAVTSASTAYMELSSLTNEDSAVYYCTRYGNYAGYYHMDYWGQGTSVTVSS
VL: QIVLTQSPALMSASPGEKVTMTCSASSSVSYIYWYQQKPRSSPKPWIYLTSNLASGVPARFSGSGSGTSYSLTISSMEAEDAATYYCQQWSSNPLTFGAGTKLELK
notes: Mouse hybridoma monoclonal antibody; also called muPHID50
Turning to B2, the figures for the concentration for a half-maximal effect (EC50) in [1] and in assay [5] were 0.326 mg/L and 0.428 nM, respectively. For the same molecule, the results for the Top in assay [2] and in assay [5] were 268000 and 1.65 OD450, respectively.

B3: PHD49-01 (humanized muPHD49) (antibody, human IgG4, V domains shown)
VH: QVQLVQSGAEVKKPGSSVKVSCKASGYTFSSYWMQWVRQAPGQGLEWIGAIYPGDDDTIYTQKFKGRATLTADKSTSTAYMELSSLRSEDTAVYYCARNYDYQAWFAYWGQGTLVTVSS
VL: DIQMTQSPSSLSASVGDRVTITCSASSSVSYMYWYQQKPGKAPKPWIYLTSNLASGVPSRFSGSGSGTDYTLTISSLQPEDFATYYCQQWSSNPLTFGQGTKLEIK
In the case of B3, in [6], the affinity, expressed as Kd, was 4.84 nM; the off-rate constant (koff) was determined as 0.00098 s⁻¹; the on-rate constant (kon) was 203000 M⁻¹ s⁻¹. In addition, in assay [3], the “Top; inhibition” value came out at 1.1 Response Ratio. Moreover, in [7], the EC50 is about 0.198 mg/L. Further, the “IC50 in NFAT assay” value in assay [4] was about 0.604 nM.

B4: PHD48-01 (humanized muPHD48) (antibody, human IgG4, V domains shown)
VH: QVQLVQSGAEVKKPGASVKVSCKASGYSFTTYWMHWVRQAPGQGLEWIGTIYPGNSDSSNNQKFKGRATLTADTSTSTAYMELSSLRSEDTAVYYCTRFYYEDWYFDVWGQGTMVTVSS
VL: DIQMTQSPSSLSASVGDRVTITCSASSSVSYMYWFQQKPGKAPKPWIYRTSNLASGVPSRFSGSGSGTDYTLTISSLQPEDFATYYCQQYHSYPPTFGGGTKVEIK
For the molecule B4, the Kd in assay [8] worked out at 2.34 nM; in assay [6], 3.07 nM; in assay [10], 3.07 nM. Also, the off-rate (koff) was 0.000524 s⁻¹ in assay [8], 0.000634 s⁻¹ in assay [6] and 0.000634 s⁻¹ in assay [10]. Moreover, the on-rate (kon) is 224000 M⁻¹ s⁻¹ in [8], 207000 M⁻¹ s⁻¹ in [6] and 207000 M⁻¹ s⁻¹ in [10]. The molecule also displayed an EC50 in assay [9] of about 0.142 mg/L. For the same molecule, the “Top; inhibition” value in assay [11] stood at 1.02 Response Ratio. In addition, the “IC50 in NFAT antagonistic assay” value in assay [4] was about 0.345 nM.

B5: control antibody pAb01 (antibody, V domains shown)
VH: EVQLVESGGGLVKPGGSLRLSCAASGFTFSGVSINWVRQAPGKGLEWVSSETTSSGTIYYADSVKGRFTISRDNAKNSLYLQMNSLRAEDTAVYYCARSYYYGMDVWGQGTTVTVS
VL: DIVMTQTPLSSPVTLGQPASISCRSSQSLVHRNGNTYLSWLQQRPGQPPRLLIYKISNRFSGVPDRFSGSGAGTDFTLKISRVEAEDVGVYYCMQARQFPLTFGGGTKVEIK
As for B5, in [12], the binding result is “binds”.

B6: muPHD48 (antibody, V domains shown)
VH: EVQLQQSGTVLARPGASVKMSCKASGYSFTTYWMHWVKQRPGQGLEWIGTIYPGNSDSSNNQKFKGKAKLTAVTSASTAYMELSSLTNEDSAVYYCTRFYYEDWYFDVWGAGTTVTVSS
VL: QIVLTQSPAIMSASPGEKVTISCSASSSVSYMYWFQQKPGSSPKPWIYRTSNLASGVPARFSGSGSGTSYSLTISSMEAEDAATYYCQQYHSYPPTFGGGTKLEIK
notes: Mouse hybridoma monoclonal antibody
B6: the EC50 in [1] came out at 0.341 mg/L; in assay [5], 0.37 nM. In addition, the Top in [2] was found to be 239000; in assay [5] it was 2.16 OD450. Moreover, the “Top; inhibition” value in [11] came to 0.862 Response Ratio. In addition, in assay [4], the “IC50 in NFAT antagonistic assay” value is 0.411 nM.

B7: chi-PHD48 (the chimeric antibody derived from muPHD48) (antibody, V domains shown)
VH: EVQLQQSGTVLARPGASVKMSCKASGYSFTTYWMHWVKQRPGQGLEWIGTIYPGNSDSSNNQKFKGKAKLTAVTSASTAYMELSSLTNEDSAVYYCTRFYYEDWYFDVWGAGTTVTVSS
VL: QIVLTQSPAIMSASPGEKVTISCSASSSVSYMYWFQQKPGSSPKPWIYRTSNLASGVPARFSGSGSGTSYSLTISSMEAEDAATYYCQQYHSYPPTFGGGTKLEIK
notes: Chimeric: VH in the pCDNA3.4-hIgG4 vector and VL in the pCDNA3.4-hKappa vector (human IgG4 / human kappa constant regions)
For the molecule B7, in [8], the Kd was 4.06 nM, the dissociation rate constant (koff) came to 0.00069 s⁻¹ and the kon came to 170000 M⁻¹ s⁻¹. In assay [6], this molecule came in with a Kd of 5.33 nM, a koff of 0.00114 s⁻¹ and a kon of 214000 M⁻¹ s⁻¹. For the same molecule, the concentration giving a half-maximal response (EC50) in [9] was 0.112 mg/L. For the same molecule, in assay [10], the affinity, expressed as Kd, was 2.8 nM; the koff turned out to be 0.000761 s⁻¹; the kon came to 272000 M⁻¹ s⁻¹. In addition, in assay [11], the “IC50; inhibition of NGF-induced TrkA activation in TrkA-NFAT-bla CHO-K1 reporter cells” value came to 1.12 nM and the “Top; inhibition” value turned out to be 1.1 Response Ratio.

A word on the EC50: it is the concentration at which the effect is half-maximal. High values mean a need for much substance, low ones an effect from little substance. A word on the Kd: it is the free concentration of one partner at which half of the binding sites on the other are occupied at equilibrium, for simple one-to-one binding. One may read the koff as the rate constant with which the complex falls apart. Broadly, the kon is the second-order rate constant of association. Read a low kon as slower complex formation.

Values taken from patent US20240002516A1 (4B TECHNOLOGIES SUZHOU, published 2024).
